From the Human Domainome abundance scans (Beltran et al. 2025) come the findings set out here.

B1: SH3 and PX domain-containing protein 2B, residues 155 to 209; numbered along this chain, A1X283 (parent)
chain: EQYVVVANYQKQESSEISLSVGQVVDIIEKNESGWWFVSTAEEQGWVPATCLEGQ

± gives the uncertainty stated by the source.

The variants in the data set derive from B1. The data set can be described thus: abundance fitness (aPCA) (normalised: wild type 0, dead -1); higher = more abundant; growth selection in yeast, the domain comes from the species named. To be noted: Homo sapiens.
Take EQYVVVANYQKQESSEISLSVGQVVDIIEKNESGWWFVSTKEEQGWVPATCLEGQ [A41K]: the abundance fitness was -0.157 ± 0.11. The value for EQYVVVANYQKQESSEISLSVGQVVDIIEKNESGWWFVSTGEEQGWVPATCLEGQ [A41G] was -0.122 ± 0.077; that for EQYVVVANYQKQESSEISLSVGQVVDIIEKNESGWWFVSTSEEQGWVPATCLEGQ [A41S] was 0.034 ± 0.073. As to EQYVVVANYQKQESSEISLSVGQVVDIIEKNESGWWFVSTIEEQGWVPATCLEGQ [A41I], the abundance fitness worked out at 0.045 ± 0.22. The value for EQYVVVANYQKQESSEISLSVGQVVDIIEKNESGWWFVSTEEEQGWVPATCLEGQ [A41E] was 0.069 ± 0.093. For EQYVVVANYQKQESSEISLSVGQVVDIIEKNESGWWFVSTMEEQGWVPATCLEGQ [A41M], the abundance fitness is -0.084 ± 0.11. The value for EQYVVVANYQKQESSEISLSVGQVVDIIEKNESGWWFVSTFEEQGWVPATCLEGQ [A41F] was -0.113 ± 0.15; that for EQYVVVANYQKQESSEISLSVGQVVDIIEKNESGWWFVSTLEEQGWVPATCLEGQ [A41L] was -0.041 ± 0.071; that for EQYVVVANYQKQESSEISLSVGQVVDIIEKNESGWWFVSTVEEQGWVPATCLEGQ [A41V] was -0.127 ± 0.07. In the case of EQYVVVANYQKQESSEISLSVGQVVDIIEKNESGWWFVSTNEEQGWVPATCLEGQ [A41N] it was -0.244 ± 0.14. EQYVVVANYQKQESSEISLSVGQVVDIIEKNESGWWFVSTHEEQGWVPATCLEGQ [A41H]: the abundance fitness is -0.009 ± 0.1. In the case of EQYVVVANYQKQESSEISLSVGQVVDIIEKNESGWWFVSTWEEQGWVPATCLEGQ [A41W], the abundance fitness is -0.376 ± 0.1. In the case of EQYVVVANYQKQESSEISLSVGQVVDIIEKNESGWWFVSTDEEQGWVPATCLEGQ [A41D], the abundance fitness is -0.273 ± 0.13. On to EQYVVVANYQKQESSEISLSVGQVVDIIEKNESGWWFVSTTEEQGWVPATCLEGQ [A41T], for which the abundance fitness was determined as 0.015 ± 0.078. Regarding EQYVVVANYQKQESSEISLSVGQVVDIIEKNESGWWFVSTQEEQGWVPATCLEGQ [A41Q], the abundance fitness is -0.133 ± 0.15. In the case of EQYVVVANYQKQESSEISLSVGQVVDIIEKNESGWWFVSTAESQGWVPATCLEGQ [E43S] it was 0.033 ± 0.098; in that of EQYVVVANYQKQESSEISLSVGQVVDIIEKNESGWWFVSTAEGQGWVPATCLEGQ [E43G], 0.041 ± 0.063. The value for EQYVVVANYQKQESSEISLSVGQVVDIIEKNESGWWFVSTAEPQGWVPATCLEGQ [E43P] was -0.856 ± 0.2. In the case of EQYVVVANYQKQESSEISLSVGQVVDIIEKNESGWWFVSTAERQGWVPATCLEGQ [E43R] it was -0.111 ± 0.067; in that of EQYVVVANYQKQESSEISLSVGQVVDIIEKNESGWWFVSTAEHQGWVPATCLEGQ [E43H], -0.021 ± 0.15; in that of EQYVVVANYQKQESSEISLSVGQVVDIIEKNESGWWFVSTAEFQGWVPATCLEGQ [E43F], -0.265 ± 0.14. Turning to EQYVVVANYQKQESSEISLSVGQVVDIIEKNESGWWFVSTAEQQGWVPATCLEGQ [E43Q], the abundance fitness is 0.065 ± 0.21. In the case of EQYVVVANYQKQESSEISLSVGQVVDIIEKNESGWWFVSTAEVQGWVPATCLEGQ [E43V], the abundance fitness was -0.093 ± 0.073. In the case of EQYVVVANYQKQESSEISLSVGQVVDIIEKNESGWWFVSTAEIQGWVPATCLEGQ [E43I], the abundance fitness was -0.155 ± 0.14. EQYVVVANYQKQESSEISLSVGQVVDIIEKNESGWWFVSTAETQGWVPATCLEGQ [E43T]: the abundance fitness is -0.033 ± 0.12. Consider EQYVVVANYQKQESSEISLSVGQVVDIIEKNESGWWFVSTAELQGWVPATCLEGQ [E43L], for which the abundance fitness is -0.263 ± 0.076. In the case of EQYVVVANYQKQESSEISLSVGQVVDIIEKNESGWWFVSTAENQGWVPATCLEGQ [E43N] it was 0.017 ± 0.14; in that of EQYVVVANYQKQESSEISLSVGQVVDIIEKNESGWWFVSTAEAQGWVPATCLEGQ [E43A], -0.038 ± 0.087; in that of EQYVVVANYQKQESSEISLSVGQVVDIIEKNESGWWFVSTAEKQGWVPATCLEGQ [E43K], -0.167 ± 0.26. As for EQYVVVANYQKQESSEISLSVGQVVDIIEKNESGWWFVSTAEYQGWVPATCLEGQ [E43Y], the abundance fitness is -0.221 ± 0.16. Regarding EQYVVVANYQKQESSEISLSVGQVVDIIEKNESGWWFVSTAEDQGWVPATCLEGQ [E43D], the abundance fitness is 0.087 ± 0.25. As to EQYVVVANYQKQESSEISLSVGQVVDIIEKNESGWWFVSTAEMQGWVPATCLEGQ [E43M], the abundance fitness is -0.117 ± 0.13.

Turning to EQYVVVANYQKQESSEISLSVGQVVDIIEKNESGWWFVSTAEWQGWVPATCLEGQ [E43W], the abundance fitness is -0.31 ± 0.15. The value for EQYVVVANYQKQESSEISLSVGQVVDIIEKNESGWWFVSTAQEQGWVPATCLEGQ [E42Q] was 0.019 ± 0.12; that for EQYVVVANYQKQESSEISLSVGQVVDIIEKNESGWWFVSTAIEQGWVPATCLEGQ [E42I] was -0.387 ± 0.14. Turning to EQYVVVANYQKQESSEISLSVGQVVDIIEKNESGWWFVSTAGEQGWVPATCLEGQ [E42G], the abundance fitness is -0.037 ± 0.061. In the case of EQYVVVANYQKQESSEISLSVGQVVDIIEKNESGWWFVSTAWEQGWVPATCLEGQ [E42W], the abundance fitness was -0.118 ± 0.079. For EQYVVVANYQKQESSEISLSVGQVVDIIEKNESGWWFVSTAMEQGWVPATCLEGQ [E42M], the abundance fitness was -0.048 ± 0.13. On to EQYVVVANYQKQESSEISLSVGQVVDIIEKNESGWWFVSTAAEQGWVPATCLEGQ [E42A], for which the abundance fitness is -0.057 ± 0.077. Consider EQYVVVANYQKQESSEISLSVGQVVDIIEKNESGWWFVSTAYEQGWVPATCLEGQ [E42Y], for which the abundance fitness was -0.163 ± 0.14. The value for EQYVVVANYQKQESSEISLSVGQVVDIIEKNESGWWFVSTADEQGWVPATCLEGQ [E42D] was 0.086 ± 0.082. As for EQYVVVANYQKQESSEISLSVGQVVDIIEKNESGWWFVSTAPEQGWVPATCLEGQ [E42P], the abundance fitness was -0.431 ± 0.097. Turning to EQYVVVANYQKQESSEISLSVGQVVDIIEKNESGWWFVSTASEQGWVPATCLEGQ [E42S], the abundance fitness came out at 0.07 ± 0.071. In the case of EQYVVVANYQKQESSEISLSVGQVVDIIEKNESGWWFVSTAKEQGWVPATCLEGQ [E42K] it was -0.057 ± 0.12; in that of EQYVVVANYQKQESSEISLSVGQVVDIIEKNESGWWFVSTAHEQGWVPATCLEGQ [E42H], 0.063 ± 0.37; in that of EQYVVVANYQKQESSEISLSVGQVVDIIEKNESGWWFVSTACEQGWVPATCLEGQ [E42C], -0.064 ± 0.092. EQYVVVANYQKQESSEISLSVGQVVDIIEKNESGWWFVSYAEEQGWVPATCLEGQ [T40Y]: the abundance fitness is -0.151 ± 0.18.

Turning to EQYVVVANYQKQESSEISLSVGQVVDIIEKNESGWWFVSTAEEAGWVPATCLEGQ [Q44A], the abundance fitness was -0.187 ± 0.1.
